Measured values reported in US20260242489A1 (HUAHUI HEALTH, published 2026).
Positions count from the first letter of the chain named. Numbers in names are those of the source.

Experiments:
[1] = molecular target: T1, hEGFR ECR-His6-Avi-Biotin (human, UniProt P00533 25-642, biotinylated on the Avi tag using BirA ligase); assay: phage ELISA: biotinylated hEGFR ECR captured on streptavidin plate, phage display scFv titrated, anti-M13-HRP; pH 7.4
T1 construct: also called WT hEGFR ECR; human EGFR ECD; not shown: His6-Avi tag

[2] = molecular target: T1, hEGFR ECR-His6-Avi-Biotin; assay: phage ELISA: biotinylated hEGFR ECR captured on streptavidin plate, phage display scFv titrated, anti-M13-HRP; pH 6.0
[3] = molecular target: T1, hEGFR ECR-His6-Avi-Biotin; assay: ELISA: hEGFR ECR on plate, IgG1 titrated, anti-hFc-HRP; pH 7.4 [right panel]
Description: (§1) Then antibody-hEGFR binding was detected with an HRP-conjugated anti-hFc secondary antibody.

[4] = molecular target: T1, hEGFR ECR-His6-Avi-Biotin; assay: ELISA: hEGFR ECR on plate, IgG1 titrated, anti-hFc-HRP; pH 6.0 [right panel]
Description: as §1

[5] = molecular target: T1, hEGFR ECR-His6-Avi-Biotin; assay: ELISA: hEGFR ECR on plate, IgG1 titrated, anti-hFc-HRP; pH 7.4 [table]
[6] = molecular target: T1, hEGFR ECR-His6-Avi-Biotin; assay: IgG1 ELISA on hEGFR ECR, pH 6.5 and pH 7.4
[7] = molecular target: T1, hEGFR ECR-His6-Avi-Biotin; assay: ELISA: hEGFR ECR on plate, IgG1 titrated, anti-hFc-HRP; pH 6.5 [table]
[8] = molecular target: T1, hEGFR ECR-His6-Avi-Biotin; assay: SPR (Biacore T200), antibody captured, hEGFR ECR analyte, steady-state affinity model, pH 6.5
Protocol: (§2) Kinetics analyses of the binding of anti-EGFR antibodies to the ECR of mouse and human EGFR were performed on a Biacore T200 instrument (Biacore, GE Healthcare). Anti-hFc Ab or protein A/G (Thermo Fisher Scientific) was covalently attached to the surface of a CM5 sensor chip using an amine coupling kit (GE Healthcare). […] Binding kinetics were evaluated using a 1:1 Langmuir binding model. The dissociation constant (KD) values were calculated with a steady-state affinity model using the Biacore T200 evaluation software.

[9] = molecular target: T1, hEGFR ECR-His6-Avi-Biotin; assay: competition ELISA: hEGFR ECR on plate, IgG1 titrated in a mixture with EGF-mFc, bound EGF-mFc detected with anti-mFc-HRP; pH 6.5 [table]
[10] = molecular target: T2, human EGFR, full-length, on A-431 cells or CT26-hEGFR cells (human, UniProt P00533 25-1210); assay: flow cytometry on A-431 cells, pH 6.5
T2 construct: A-431 cells (own EGFR) and mouse CT26 cells transfected with human EGFR; the cell line is named under assay
Protocol: (§3) Antibody binding to cells was then assessed based on the fluorescence intensity for FITC.

[11] = molecular target: T2, human EGFR, full-length, on A-431 cells …; assay: flow cytometry on A-431 cells
Protocol: as §3

[12] = molecular target: T2, human EGFR, full-length, on A-431 cells …; assay: flow cytometry on CT26-hEGFR cells, pH 7.4
Protocol: as §3

[13] = molecular target: T1, hEGFR ECR-His6-Avi-Biotin; assay: SPR (Biacore T200), antibody captured, hEGFR ECR analyte, steady-state affinity model, pH 7.4
Protocol: as §2

[14] = molecular target: T3, mEGFR ECR (His6-Avi-tagged) (mouse, UniProt Q01279 25-644); assay: SPR (Biacore T200), antibody captured, mEGFR ECR analyte, steady-state affinity model, pH 6.5
T3 construct: also called mouse EGFR; not shown: His6-Avi tag

[15] = molecular target: T2, human EGFR, full-length, on A-431 cells …; assay: flow cytometry on A-431 cells, pH 7.4
Protocol: as §3

[16] = molecular target: T3, mEGFR ECR (His6-Avi-tagged); assay: SPR (Biacore T200), antibody captured, mEGFR ECR analyte, steady-state affinity model, pH 7.4
Protocol: as §2

[17] = molecular target: T3, mEGFR ECR (His6-Avi-tagged); assay: SPR (Biacore T200), mEGFR ECR analyte, steady-state affinity model
Protocol: as §2

[18] = molecular target: T2, human EGFR, full-length, on A-431 cells …; assay: flow cytometry on CT26-hEGFR cells, pH 6.5
Protocol: as §3

[19] = molecular target: T2, human EGFR, full-length, on A-431 cells …; assay: flow cytometry on CT26-hEGFR cells
Protocol: as §3

[20] = molecular target: T1, hEGFR ECR-His6-Avi-Biotin; assay: SPR (Biacore T200), hEGFR ECR analyte, steady-state affinity model
Protocol: as §2

[21] = molecular target: T1, hEGFR ECR-His6-Avi-Biotin; assay: phage ELISA: hEGFR ECR on plate, phage display Fab titrated, anti-M13-HRP; EC50 at pH 7.4 over EC50 at pH 6.5 [table]
[22] = molecular target: T1, hEGFR ECR-His6-Avi-Biotin; assay: competition ELISA: hEGFR ECR on plate, IgG1 titrated in a mixture with EGF-mFc, bound EGF-mFc detected with anti-mFc-HRP; pH 7.4 [table]

B1: 11C04 (scFv, part only; not given: scFv linker, domain order, phage fusion, V domains shown, not shown: another chain or arm of the molecule; large carriers; small tags and cut ends)
VH: EVQLVQSGAEVKKPGASVKVSCKASGYTFTSYYMHWVRQAPGQGLEWMGIINPSGGSTSYAQKFQGRVTMTRDTSTSTVYMELSSLRSEDTAVYYCARDLEMAYYDILYGMDVWGQGTLVTVSS
VL: QSALTQPASVSGSAGQSITISCTGTTSDIGRYDYVSWYQQHPGQVPKLMIYDVSNRPSGVSDRFSGSKSGNTASLTISGLQTEDEADYYCSSYTTSGTRVFGGGTKLTVL
EC50 (read off the curve) [1]: 1e+10 cfu/ml | EC50 (read off the curve) [2]: 1e+10 cfu/ml

B2: 11A10 (full-length human IgG1 form) (antibody, V domains shown)
VH: EVQLVQSGAEVKKPGESLMISCKGSGYSFTNHWIGWVRQMPGKGPEWMGIINPRDSDARYSPSFRGQVTFSVDRSTNTAYLQWTSLKPSDTGMYFCARRDIVVVPAATPSYYYYGMDVWGQGTTVTVSS
VL: DIQLTQSPSSLSASVGDSVTITCRPRQSSSRFVNWYQHKPGKAPKLLISNASDLQHGVPSRFSGRGAGTEFTLTIDSLQPDDVATYYCEQSYRFPHMFGQGTKVEIKR
EC50 [3]: 58.9 nM | EC50 [4]: 1.36 nM

B3: G532^V (human IgG1 form) (antibody, V domains shown)
VH: QVQLVQSGAEVKRPGSSVKVSCKASGGISDGSAISWVRQAPGQGLEWMGGIRWWGGITNYAQKFQGRVTITADESTSTAYMELSSLRSEDTAVYYCARDSSLGYYDYFDYWGQGTLVTVSS
VL: QPVLTQPPSVSAAPGQTARITCGGNNIGEKHVQWYQQRPGQAPVLVIYYDSTRPSGIPERFSGSNSGNTAALTINSVEAGDEADYYCQAWDDYDPVVFGGGTQLTVLG
notes: G532 with LCDR1 E32H and LCDR2 D52S, D53T
EC50 [5]: 0.517 nM | EC50 ratio (pH 7.4/pH 6.5) [6]: 1.64 | fold lower binding pH-dependency than G532 [6]: ~5 fold | EC50 [7]: 0.316 nM

B4: G532 (human IgG1 form) (antibody, V domains shown)
VH: B3 VH
VL: B3 VL with H31E, S51D, T52D
Kd [8]: 294 nM | IC50 [9]: 20.6 nM | EC50 [10]: 0.528 nM | EC50 ratio (pH 7.4/6.5) [11]: 26 | EC50 [12]: 15.2 nM | Kd [13]: 3900 nM | EC50 [5]: 5.58 nM | Kd [14]: 547 nM | EC50 [15]: 13.7 nM | Kd [16]: 1810 nM | KD ratio (pH 7.4/6.5) [17]: 3.31 | EC50 ratio (pH 7.4/pH 6.5) [6]: 8.08 | EC50 [18]: 0.787 nM | EC50 ratio (pH 7.4/6.5) [19]: 19.4 | EC50 [7]: 0.69 nM | KD ratio (pH 7.4/6.5) [20]: 13.3

B5: WT G5V2 (phage display Fab form) (Fab, V domains shown)
VH: B3 VH with R52Y, W53F, W54F, G55N, I57N
VL: QPVLTQPPSVSAAPGQTARITCGGNNIGEKYVQWYQQRPGQAPVLVIYYDDDRPSGIPERFSGSNSGNTAALTINSVEAGDEADYYCQAWDDYDPVVFGGGTQLTVL
EC50 ratio (pH 7.4/pH 6.5) [21]: 1.21

B6: G532^Ctrl (human IgG1 form) (antibody, V domains shown)
VH: B3 VH
VL: B3 VL with K30N
notes: G532^V with LCDR1 K31N; also called non-pH-dependent variant of G532
Kd [8]: 406 nM | IC50 [9]: 39.5 nM | EC50 [10]: 0.771 nM | EC50 ratio (pH 7.4/6.5) [11]: 0.718 | EC50 [12]: 0.587 nM | Kd [13]: 243 nM | EC50 [5]: 0.635 nM | IC50 [22]: 61.8 nM | Kd [14]: 1270 nM | EC50 [15]: 0.554 nM | Kd [16]: 743 nM | KD ratio (pH 7.4/6.5) [17]: 0.586 | EC50 ratio (pH 7.4/pH 6.5) [6]: 0.759 | EC50 [18]: 1.25 nM | EC50 ratio (pH 7.4/6.5) [19]: 0.469 | EC50 [7]: 0.837 nM | KD ratio (pH 7.4/6.5) [20]: 0.599

B7: G5V2 Y32H (phage display Fab form) (Fab, V domains shown)
VH: B3 VH with R52Y, W53F, W54F, G55N, I57N
VL: B5 VL with Y31H
notes: Kabat numbering (31st letter by plain count)
EC50 ratio (pH 7.4/pH 6.5) [21]: 0.61

B8: 14C07 (phage display scFv form) (scFv, V domains shown)
VH: QVQLVQSGAEVKRPGSSVKVSCKASGGTFSSYAISWVRQAPGQGLEWMGGIIPIFGTANYAQKFQGRVTITADESTSTAYMELSSLRSEDTAVYYCARDSSSGWYDYFDYWGQGTLVTVSS
VL: QPVLTQPPSVSAAPGAMARITCESPDIGSKSVQWYQQRPGQAPILVIYYDDDRPSGIPERFSGSNSGNTAALTINWVEPEDEADYYCQAWDDSDPVVFGGGTQLTVL
EC50 (read off the curve) [2]: ~1e+11 cfu/ml
